Consider 2 molecules from paper PMC6499816, “Molecular determinants regulating selective binding of autophagy adapters and receptors to ATG8 proteins” (Nature Communications, 2019).

The test has as its target -L1 (recombinant, BLI) (human), Q9H0R8. The test is described as follows: BLI. The settings on record: modification not given.

Chain of -L1 (recombinant, BLI) (human), Q9H0R8 (Q9H0R8 whole entry): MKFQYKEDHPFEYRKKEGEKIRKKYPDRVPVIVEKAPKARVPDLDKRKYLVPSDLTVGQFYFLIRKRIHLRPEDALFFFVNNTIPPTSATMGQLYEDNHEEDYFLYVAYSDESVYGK

B1: PCM1 V1956D LIR peptide (peptide)
chain: NISQKSDEEDFDKVEDLPLKLTIY
With B1, the dissociation constant (Kd) was found to be 5.2 µM.

B2: PCM1 V1958I LIR peptide (peptide)
chain: NISQKSDEEDFVKIEDLPLKLTIY
For the molecule B2, the Kd is 1.1 µM.
